# Test results published in WO2023002944A1.
# pKd: −log10 of the molar value.
# Biological target: RBD domain derived from the Omicron strain (B.1.1.529 strain) (SARS-CoV-2 Omicron strain (B.1.1.529)) (UniProt P0DTC2)
# Experiment: SPR (Biacore T200), as in Example 4: antibody on the chip, RBD as analyte
substance,measurement,value
S309 (antibody),pKd,8.68
